# Paper PMC7814183, “Supramolecular polymerization of sulfated dendritic peptide amphiphiles into multivalent L-selectin binders” (Beilstein Journal of Organic Chemistry, 2021)
# Where two headings read alike, the source gives them in different places.
# Assays:
# [1] = TEM of negatively stained solutions (self-assembly morphology); type: physicochemical; conditions: TEM (25 µM, TRIS 20 mM pH 7.4, 100 mM NaCl) and cryo-TEM (50 µM, PBS (-/-) pH 7.4, 100 mM NaCl)
# Description: The application of transmission electron microscopy (TEM) gave further insight into the morphology of the assemblies induced by the secondary structure formation (Figure 1). All samples for convential TEM imaging were prepared by placing 5 μL of the aqueous solution on a sample grid for 1 min, followed by the removal of the excess liquid using a filter paper and subsequent negative staining using a 2% uranyl acetate solution. By analyzing a 25 μM aqueous solution of I, long rigid anisotopic rod-like structures with lengths of 200–400 nm could be visualized (Figure 1B and 1C), in agreement with our previously reported findings. […] The copresence of shorter, more flexible structures could be seen as well. […] Since the morphology of the aqueous supramolecular polymers observed in dry TEM can be influenced by the sample preparation, cryo-TEM experiments were furthermore performed in order to visualize the assemblies in a native state (Figure 1D and Figure S1 in Supporting Information File 1). The presence of straight nanorods of over 200 nm in length with a high degree of lateral order could be observed, thus corroborating the interpretations from dry TEM experiments.
# In order to compare the morphology of the self-assembled sulfated compound II with the TEG-decorated compound I, TEM and cryo-TEM experiments were performed (Figure 2B and 2C). […]
# [2] = CD spectroscopy, ionic strength-dependent titration of self-assembly; type: physicochemical; conditions: 25 µM solution in 20 mM TRIS, pH 7.4; CD band around 218 nm
# Source text: The self-assembly behavior of the peptide-based materials can be readily investigated using CD spectroscopy. The supramolecular polymerization strongly relies on the formation of secondary structure elements, leading to ordered domains that lead to characteristic CD band spectra. By probing aqueous solutions of I at different concentrations in H2O, a strongly negative CD band at around λ ≈ 220 nm became apparent (Figure 1A). In the past we have assigned this characteristic CD band to a β-sheet-dominated short-range ordering of oligopeptide monomers, which is stable over a wide concentration range [30, 39–40].
# Attaching functional groups to the dendritic peptide amphiphiles – and thus the supramolecular polymers – by exchanging one of the shielding dendritic tetra(ethylene glycol) dendrons is important with regard to potential applications. However, depending on the nature of the functional groups, the influence on the self-assembly behavior may not be neglected. In the present work, the installation of a sulfated oligoglycerol dendron introduces eight anionic charges to the periphery of the peptide amphiphile II that possibly counteracts the β-sheet-driven self-assembly due to electrostatic repulsion. CD spectroscopic experiments based on 25 µM or 50 µM solutions of II in 20 mM TRIS as well as PBS buffer support this notion (Figure 2A and Figure S2 in Supporting Information File 1). […]
# L-selectin [3] = target: T1, L-selectin (Homo sapiens, UniProt P14151); assay: competitive SPR L-selectin binding (inhibition) assay; conditions: competitive SPR (BIAcore X); L-selectin/Fc chimera on protein A-coated 15 nm gold nanoparticles preincubated with analyte; chip with immobilized sulfated tyrosine/sialyl-Lewis X ligand; HEPES 0.020 M pH 7.4, 0.150 M NaCl, 0.001 M CaCl2; sigmoidal fit
# T1 construct: purchased R&D Systems, Minneapolis, USA
# Description: The L-selectin binding behavior of the sulfated supramolecular polymer resulting from II was assessed using a competitive surface plasmon resonance (SPR) binding assay, whereby neutral supramolecular polymers of I were used as control experiment. L-Selectin-coated gold nanoparticles were incubated with analyte solutions of different concentrations and subsequently probed on an SPR-chip modified with immobilized sulfated tyrosine and sialyl-Lewis^X as model ligands. The resulting signal is referenced to a control experiment lacking the preincubation of L-selectin particles. Figure 3 summarizes the resulting dose–response curves.
# Figure 3 Concentration-dependent relative L-selectin binding of the supramolecular polymers I and II in HEPES buffer (0.020 M, pH 7.4, with 0.150 M NaCl and 0.001 M CaCl2) measured by SPR. L-Selectin-coated nanoparticles were preincubated with solutions of the supramolecular polymers. […]
# (Quantifoil R1/4) at room temperature. […]
# autoloader protocol. The micrographs were recorded under low -dose conditions with a primary
# magnification of 28000x and an acceleration voltage of 200 kV. The images were recorded by […]
# Minneapolis, USA), and the binding signal to the artificial ligand was recorded. […]
# taken, which yielded the respective dose–response curves. The IC50 values were determined […]
# L-selectin [4] = target: T1, L-selectin; conditions: literature comparison values; read-out: IC50, L-selectin binding; cited from earlier work
# Source text: However, the densely sulfated dendritic polyglycerol of similar molecular weight is able to bind in the ...
# T1 sequence (P14151 with tags, fused parts or gaps limits assumed, species assumed): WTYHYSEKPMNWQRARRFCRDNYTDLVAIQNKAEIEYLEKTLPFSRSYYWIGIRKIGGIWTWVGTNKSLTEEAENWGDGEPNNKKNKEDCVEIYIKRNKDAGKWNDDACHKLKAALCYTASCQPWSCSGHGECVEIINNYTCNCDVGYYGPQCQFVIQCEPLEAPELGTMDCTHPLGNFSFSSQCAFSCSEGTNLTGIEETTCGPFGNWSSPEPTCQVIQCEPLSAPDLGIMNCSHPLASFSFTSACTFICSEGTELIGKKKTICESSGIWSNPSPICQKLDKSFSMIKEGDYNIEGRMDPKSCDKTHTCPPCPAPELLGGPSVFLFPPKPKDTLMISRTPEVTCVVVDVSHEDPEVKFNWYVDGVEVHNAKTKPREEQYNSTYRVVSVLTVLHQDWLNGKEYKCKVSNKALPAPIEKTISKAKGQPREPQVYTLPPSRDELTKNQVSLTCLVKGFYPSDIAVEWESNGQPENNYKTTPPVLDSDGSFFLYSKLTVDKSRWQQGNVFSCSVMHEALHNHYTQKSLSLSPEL
molecule,measurement,setting,value
COCCOCCOCCOCCOCC(COCCOCCOCCOCCOC)(COCCOCCOCCOCCOC)NC(=O)CCCCCNC(=O)[C@H](Cc1ccccc1)NC(=O)[C@H](Cc1ccccc1)NC(=O)[C@H](Cc1ccccc1)NC(=O)c1cc(C(=O)N[C@@H](Cc2ccccc2)C(=O)N[C@@H](Cc2ccccc2)C(=O)N[C@@H](Cc2ccccc2)C(=O)NCCCCCC(=O)NCCOCCNC(=O)Cn2cc(COC(COC(COC(COS(=O)(=O)O)COS(=O)(=O)O)COC(COS(=O)(=O)O)COS(=O)(=O)O)COC(COC(COS(=O)(=O)O)COS(=O)(=O)O)COC(COS(=O)(=O)O)COS(=O)(=O)O)nn2)cc(C(=O)N[C@@H](Cc2ccccc2)C(=O)N[C@@H](Cc2ccccc2)C(=O)N[C@@H](Cc2ccccc2)C(=O)NCCCCCC(=O)NC(COCCOCCOCCOCCOC)(COCCOCCOCCOCCOC)COCCOCCOCCOCCOC)c1 [II],length of long rigid rods,[1],several hundred nanometers
same,added NaCl at which the characteristic β-sheet CD signature is restored,[2],> 100 mM
COCCOCCOCCOCCOCC(COCCOCCOCCOCCOC)(COCCOCCOCCOCCOC)NC(=O)CCCCCNC(=O)[C@H](Cc1ccccc1)NC(=O)[C@H](Cc1ccccc1)NC(=O)[C@H](Cc1ccccc1)NC(=O)c1cc(C(=O)N[C@@H](Cc2ccccc2)C(=O)N[C@@H](Cc2ccccc2)C(=O)N[C@@H](Cc2ccccc2)C(=O)NCCCCCC(=O)NC(COCCOCCOCCOCCOC)(COCCOCCOCCOCCOC)COCCOCCOCCOCCOC)cc(C(=O)N[C@@H](Cc2ccccc2)C(=O)N[C@@H](Cc2ccccc2)C(=O)N[C@@H](Cc2ccccc2)C(=O)NCCCCCC(=O)NC(COCCOCCOCCOCCOC)(COCCOCCOCCOCCOC)COCCOCCOCCOCCOC)c1 [I],IC50,L-selectin [3],5 µM
unfractionated heparin,IC50,L-selectin [4],12 µM
